Assay results reported in paper PMC10861912, “Viral afterlife: SARS-CoV-2 as a reservoir of immunomimetic peptides that reassemble into proinflammatory supramolecular complexes” (Proceedings of the National Academy of Sciences of the …, 2024).

Test: Linear charge density of the peptide
Format: physicochemical

LL-37: highly cationic human cathelicidin, host antimicrobial peptide
linear charge density: ~ +1.1 e/nm
